Square brackets hold non-standard residues; d marks the D form. Ends that are not written are not given here.
Target: T1, Active phosphorylated His6-tagged ERK2 WT (rat (p-0033 says mouse), UniProt P63086 3-358, phosphorylated (active form; sites not given))
T1 construct: ERK2 (MAPK1); rat numbering; Same plasmid as the crystallised protein m9, but phosphorylated; also called WT ERK2; His6-ERK2; source: E. coli BL21(DE3), co-expressed with GST-MEK1ΔN3, purified (Talon resin)
Test: competitive peptide kinase assay; D-peptide titrated as competitive inhibitor of 10 nM ERK2 on 5 μM D-site dependent reporter peptide (AQT0376), 10 μM ATP; 54 mM HEPES pH 7.4, 1.2 mM DTT, 0.01% Brij-35, 1% glycerol, 0.2 mg/ml BSA, 10 mM MgCl2; fluorescence read-out; IC50 as relative binding affinity
Details: both partners purified

Binder	IC50
YARIARRGLPRLAVSD (not fully specified (some residues), ISG20, human, residues 168-181 with the changes; numbers count on: the 14-mer peptide (position 1 = Ile168); also called ISG20^I1R/R2I; source: synthetic peptide (GenScript)) [ISG20 D-peptide I1R/R2I]	200 µM
YAIRARRGLPRLAVSD (not fully specified, ISG20, human, residues 168-181; also called ISG20^WT; ISG20 peptide WT; source: synthetic peptide (GenScript)) [ISG20 D-peptide WT (competitive kinase assay form, with N-terminal Tyr-Ala)]	5.4 µM
[dY][dA][dI][dR][dA][dR][dR][dQ][dL][dP][dR][dL][dA][dV][dS][dD] (ISG20, human, residues 168-181 with the change; numbers count on: the 14-mer peptide (position 1 = Ile168); also called ISG20^G6Q; source: synthetic peptide (GenScript)) [ISG20 D-peptide G6Q]	41 µM
YANRARRGLPRLAVSD (not fully specified (some residues), ISG20, human, residues 168-181 with the change; numbers count on: the 14-mer peptide (position 1 = Ile168); also called ISG20^I1N; source: synthetic peptide (GenScript)) [ISG20 D-peptide I1N]	190 µM
